Data on 5 molecules can be found in article PMC3170999 (Molecular cancer therapeutics, 2011).

One assay has as its target Biotinylated human IGF2 (Homo sapiens, UniProt P01344, biotin). Nature of the assay: flow cytometry on cells.
The next assay addresses Biotinylated human IGF1 (human, UniProt P05019, biotin). Nature of the assay: flow cytometry on cells.
In assay [1] the target is T1, Human IGF2 (Homo sapiens, UniProt P01344). As to the kind of experiment: SPR.
Assay [2] concerns the target T2, Recombinant human IGF1 (Homo sapiens, UniProt P05019). As to the kind of experiment: SPR.
For assay [3], the target named is T1, Human IGF2. As to the kind of experiment: SPR. This is another data set of the same source.
Assay [4] addresses T2, Recombinant human IGF1. As to the kind of experiment: SPR. This is another data set of the same source.

B1: scFv m708.2, yeast-displayed (scFv, V domains shown)
VH: QVQLQQPGAEVKKPGSSVKVSCKASGGTFSSYAISWVRQAPGQGLEWMGGIIPILGIANYAQKFQGRVTITADESTSTAYMELSSLRSEDTAVYYCARGPRGYSYNFDYWGQGTLVTVSS
VL: DIQMTQSPSSLSASVGDRVTIACRASQTISRYLNWYQQKPGKAPKLLIYAASSLQSGVSSRFSGSGSGTEFTLTISSLQPEDFATYFCQQTYSPPITFGQGTRLEIK
Turning to B1, the Kd with Biotinylated human IGF2 is 1.1 nM; with Biotinylated human IGF1 it was 3.9 nM.

B2: scFv m708.5, purified soluble (scFv, V domains shown)
VH: QVQLQQLGAEVKMPGSSVKVSCKASGGTFSSYAISWVRQAPGQGLEWMGGIIPTLGIVKYAQKFQGRVTITADKSTSTAYMELSSLGSEDTAVYYCAGGPRGYSYNFDNWGQGTLVTVSS
VL: DIQMTQSPSSLSASVGDRVTIVCRASQTISRYVNWYQQKPGKAPKLLIYAASSLQSGVSSRFSGSGSGTEFALTISSLQPEDFATYFCQQTYSPPITFGQGTRLEIK
For B2, the Kd was determined as 0.061 nM in the assay with Human IGF2 [1] and 0.2 nM with Recombinant human IGF1 [2]. In addition, the koff is 2.5e-06 s⁻¹ with Human IGF2 [1] and 0.00028 s⁻¹ with Recombinant human IGF1 [2].

B3: scFv m708.2, purified soluble (scFv, V domains shown)
VH: QVQLQQPGAEVKKPGSSVKVSCKASGGTFSSYAISWVRQAPGQGLEWMGGIIPILGIANYAQKFQGRVTITADESTSTAYMELSSLRSEDTAVYYCARGPRGYSYNFDYWGQGTLVTVSS
VL: DIQMTQSPSSLSASVGDRVTIACRASQTISRYLNWYQQKPGKAPKLLIYAASSLQSGVSSRFSGSGSGTEFTLTISSLQPEDFATYFCQQTYSPPITFGQGTRLEIK
B3: in the assay with Human IGF2 [1], the affinity, expressed as Kd, was 1.8 nM and the koff came out at 0.0004 s⁻¹. Moreover, in the assay with Recombinant human IGF1 [2], the Kd is 2.2 nM and the koff came to 0.0024 s⁻¹.

B4: IgG1 m708.5 (antibody, V domains shown)
VH: QVQLQQLGAEVKMPGSSVKVSCKASGGTFSSYAISWVRQAPGQGLEWMGGIIPTLGIVKYAQKFQGRVTITADKSTSTAYMELSSLGSEDTAVYYCAGGPRGYSYNFDNWGQGTLVTVSS
VL: DIQMTQSPSSLSASVGDRVTIVCRASQTISRYVNWYQQKPGKAPKLLIYAASSLQSGVSSRFSGSGSGTEFALTISSLQPEDFATYFCQQTYSPPITFGQGTRLEIK
On to B4, for which the “fold change of the effective KD against the KD of scFv m708.5” value with Human IGF2 [3] came out at 60 fold; in the assay with Recombinant human IGF1 [4] it was 1000 fold.

B5: scFv m708.5, yeast-displayed (scFv, V domains shown)
VH: QVQLQQLGAEVKMPGSSVKVSCKASGGTFSSYAISWVRQAPGQGLEWMGGIIPTLGIVKYAQKFQGRVTITADKSTSTAYMELSSLGSEDTAVYYCAGGPRGYSYNFDNWGQGTLVTVSS
VL: DIQMTQSPSSLSASVGDRVTIVCRASQTISRYVNWYQQKPGKAPKLLIYAASSLQSGVSSRFSGSGSGTEFALTISSLQPEDFATYFCQQTYSPPITFGQGTRLEIK
Consider B5, for which the Kd worked out at 0.041 nM with Biotinylated human IGF2 and 0.1 nM with Biotinylated human IGF1.
